Results as given in patent US20210196796A1 (SYNTHEKINE, published 2021).
Numbering of substitutions follows the chain as printed.

B1: SQVLTA (ligand)
chain: APTSSSTKKTQLQLSQLLVLLTAILNGINNYKNPKLTRMLTFKFYMPKKATELKHLQCLEEELKPLEEVLNLAQSKNFHLRPRDLISNINVIVLELKGSETTFMCEYADETATIVEFLNRWITFCQSIISTLT
B2: SQVLKW (ligand)
chain: B1 chain with T22K, A23W
B3: SQVLKH (ligand)
chain: B1 chain with T22K, A23H
B4: ΔM23, SQVLK- (ligand)
chain: APTSSSTKKTQLQLSQLLVLLKILNGINNYKNPKLTRMLTFKFYMPKKATELKHLQCLEEELKPLEEVLNLAQSKNFHLRPRDLISNINVIVLELKGSETTFMCEYADETATIVEFLNRWITFCQSIISTLT

What follows are binders tested against T1, orthogonal hCD122 receptor (hoRb), hCD122 with H133D and Y134F (human, UniProt P14784 27-550) (assay: cell-based or functional assay).
T1 sequence: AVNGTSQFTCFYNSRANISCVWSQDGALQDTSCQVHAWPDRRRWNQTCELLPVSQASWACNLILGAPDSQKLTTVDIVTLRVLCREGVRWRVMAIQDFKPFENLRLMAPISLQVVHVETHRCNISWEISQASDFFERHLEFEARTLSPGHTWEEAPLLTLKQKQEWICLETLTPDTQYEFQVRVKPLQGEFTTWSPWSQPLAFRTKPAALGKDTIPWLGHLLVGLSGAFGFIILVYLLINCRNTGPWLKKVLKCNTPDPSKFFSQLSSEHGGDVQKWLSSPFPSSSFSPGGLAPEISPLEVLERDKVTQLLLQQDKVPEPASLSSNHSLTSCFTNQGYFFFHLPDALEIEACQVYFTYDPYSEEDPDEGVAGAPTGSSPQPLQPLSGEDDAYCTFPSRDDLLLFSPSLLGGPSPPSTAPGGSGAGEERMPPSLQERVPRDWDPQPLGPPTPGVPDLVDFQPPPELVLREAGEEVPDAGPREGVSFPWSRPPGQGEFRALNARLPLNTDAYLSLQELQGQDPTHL
Throughout, for Relative Proliferation Fold Change 3F8 1:10: reference of the scale not given here.
Throughout, for Relative Proliferation Fold Change 3F8 1:2: reference of the scale not given here.
Throughout, for Relative Proliferation Fold Change 3F8 1:50: reference of the scale not given here.
Throughout, for Relative Proliferation Fold Change NKL 1:10: reference of the scale not given here.
Throughout, for Relative Proliferation Fold Change NKL 1:2: reference of the scale not given here.
Throughout, for Relative Proliferation Fold Change NKL 1:50: reference of the scale not given here.

Binder | NKL Ortho Proliferation Signal 1:2 | NKL Ortho Proliferation Signal 1:10 | NKL Ortho Proliferation Signal 1:50 | Relative Proliferation Fold Change NKL 1:2 [fold] | Relative Proliferation Fold Change NKL 1:10 [fold] | Relative Proliferation Fold Change NKL 1:50 [fold]
B1 | 26400 | 19400 | 7650 | 2.27 | 1.38 | 0.6
B2 | 52000 | 36000 | 17900 | 3.55 | 2.52 | 1.33
B3 | 44400 | 39200 | 18500 | 4 | 2.7 | 1.49
B4 | 27600 | 19000 | 8950 | 2.87 | 1.43 | 0.73

Target: T1, orthogonal hCD122 receptor (hoRb), …
Assay: cell-based or functional assay
Remark: another data set of the same source

Binder | 3F8 Ortho Proliferation Signal 1:2 [cts/min] | 3F8 Ortho Proliferation Signal 1:10 [cts/min] | 3F8 Ortho Proliferation Signal 1:50 [cts/min] | Relative Proliferation Fold Change 3F8 1:2 [fold] | Relative Proliferation Fold Change 3F8 1:10 [fold] | Relative Proliferation Fold Change 3F8 1:50 [fold]
B1 | 24100 | 15100 | 6550 | 0.46 | 10.9 | 5.95
B2 | 40800 | 32600 | 20500 | 36 | 24.7 | 34.3
B3 | 25700 | 17300 | 18700 | 39.9 | 14.6 | 13.7
B4 | 6220 | 4410 | 2930 | 12.9 | 7.97 | 2.82
